PMC10786891, “Massively parallel profiling of RNA-targeting CRISPR-Cas13d”
Substitutions are numbered along the chain they refer to. Names may count otherwise.

T1: EsCas13d, nuclease-dead (Eubacterium siraeum, UniProt B0MS50, R295A;H300A;R849A;H854A)
T1 sequence: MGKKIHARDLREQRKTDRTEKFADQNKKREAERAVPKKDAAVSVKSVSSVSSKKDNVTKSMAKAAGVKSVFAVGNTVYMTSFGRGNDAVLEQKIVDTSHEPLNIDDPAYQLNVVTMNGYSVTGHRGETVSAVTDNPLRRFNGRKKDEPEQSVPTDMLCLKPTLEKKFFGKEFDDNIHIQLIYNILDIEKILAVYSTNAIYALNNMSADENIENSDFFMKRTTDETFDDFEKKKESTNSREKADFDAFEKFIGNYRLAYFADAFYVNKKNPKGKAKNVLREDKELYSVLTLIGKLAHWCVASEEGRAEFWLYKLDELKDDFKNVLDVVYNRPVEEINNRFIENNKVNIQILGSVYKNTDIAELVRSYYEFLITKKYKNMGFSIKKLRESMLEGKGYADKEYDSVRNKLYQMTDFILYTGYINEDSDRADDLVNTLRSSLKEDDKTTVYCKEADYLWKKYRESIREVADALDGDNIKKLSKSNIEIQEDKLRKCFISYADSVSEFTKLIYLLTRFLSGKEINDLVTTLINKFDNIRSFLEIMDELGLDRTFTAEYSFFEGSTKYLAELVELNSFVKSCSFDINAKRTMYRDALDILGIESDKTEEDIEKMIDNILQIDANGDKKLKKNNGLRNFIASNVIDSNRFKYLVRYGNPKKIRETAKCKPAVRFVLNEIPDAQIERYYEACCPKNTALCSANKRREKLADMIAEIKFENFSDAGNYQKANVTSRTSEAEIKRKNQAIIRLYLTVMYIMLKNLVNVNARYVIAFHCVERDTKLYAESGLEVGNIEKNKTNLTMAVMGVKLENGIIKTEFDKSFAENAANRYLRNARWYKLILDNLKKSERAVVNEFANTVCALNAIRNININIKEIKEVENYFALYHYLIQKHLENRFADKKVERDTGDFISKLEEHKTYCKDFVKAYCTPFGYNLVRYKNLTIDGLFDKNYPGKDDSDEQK

B1: target 2 MT 5'PFS CUC 3'PFS AAC (mixed)
RNA 1: CACCCGUGCAAAAUUGCAGGGGUCUAAAACCUUCUCCAAAUUGUUUCAUCCU
RNA 2: GGGAAUGGAUCCACAUCUACGAAUUCCUCAGGAUGAAACAAUUUGGAGAAGAACAGAUCGGAAGAGCACACGU
B2: target 2 MT 5'PFS AGG 3'PFS UCU (mixed)
RNA 1: B1 RNA 1
RNA 2: B1 RNA 2 with C27A, U28G, C29G, A52U, A53C, C54U
B3: target 2 MT 5'PFS AGC 3'PFS AUC (mixed)
RNA 1: B1 RNA 1
RNA 2: B1 RNA 2 with C27A, U28G, A53U
B4: target 2 MT 5'PFS UCG 3'PFS UAA (mixed)
RNA 1: B1 RNA 1
RNA 2: B1 RNA 2 with C27U, U28C, C29G, A52U, C54A
B5: target 2 MT 5'PFS AGC 3'PFS AUU (mixed)
RNA 1: B1 RNA 1
RNA 2: B1 RNA 2 with C27A, U28G, A53U, C54U
B6: target 2 MT 5'PFS CAA 3'PFS CCA (mixed)
RNA 1: B1 RNA 1
RNA 2: B1 RNA 2 with U28A, C29A, A52C, A53C, C54A
B7: target 2 MT 5'PFS CUC 3'PFS AAA (mixed)
RNA 1: B1 RNA 1
RNA 2: B1 RNA 2 with C54A
B8: target 2 MT 5'PFS UCG 3'PFS UAG (mixed)
RNA 1: B1 RNA 1
RNA 2: B1 RNA 2 with C27U, U28C, C29G, A52U, C54G
B9: target 2 MT 5'PFS CGC 3'PFS UCA (mixed)
RNA 1: B1 RNA 1
RNA 2: B1 RNA 2 with U28G, A52U, A53C, C54A
B10: target 2 MT 5'PFS UAU 3'PFS GAA (mixed)
RNA 1: B1 RNA 1
RNA 2: B1 RNA 2 with C27U, U28A, C29U, A52G, C54A
B11: target 2 MT 5'PFS GCG 3'PFS AUG (mixed)
RNA 1: B1 RNA 1
RNA 2: B1 RNA 2 with C27G, U28C, C29G, A53U, C54G
B12: target 2 MT 5'PFS CAC 3'PFS UAA (mixed)
RNA 1: B1 RNA 1
RNA 2: B1 RNA 2 with U28A, A52U, C54A
B13: target 2 MT 5'PFS GUU 3'PFS AUU (mixed)
RNA 1: B1 RNA 1
RNA 2: B1 RNA 2 with C27G, C29U, A53U, C54U
B14: target 2 MT 5'PFS ACU 3'PFS UGU (mixed)
RNA 1: B1 RNA 1
RNA 2: B1 RNA 2 with C27A, U28C, C29U, A52U, A53G, C54U
B15: target 2 MT 5'PFS GCG 3'PFS AUC (mixed)
RNA 1: B1 RNA 1
RNA 2: B1 RNA 2 with C27G, U28C, C29G, A53U
B16: target 2 MT 5'PFS UGU 3'PFS UGU (mixed)
RNA 1: B1 RNA 1
RNA 2: B1 RNA 2 with C27U, U28G, C29U, A52U, A53G, C54U
B17: target 2 MT 5'PFS GUU 3'PFS AUA (mixed)
RNA 1: B1 RNA 1
RNA 2: B1 RNA 2 with C27G, C29U, A53U, C54A
B18: target 2 MT 5'PFS CAA 3'PFS CCG (mixed)
RNA 1: B1 RNA 1
RNA 2: B1 RNA 2 with U28A, C29A, A52C, A53C, C54G
B19: target 2 MT 5'PFS AGC 3'PFS AUG (mixed)
RNA 1: B1 RNA 1
RNA 2: B1 RNA 2 with C27A, U28G, A53U, C54G
B20: target 2 MT 5'PFS GCG 3'PFS AUA (mixed)
RNA 1: B1 RNA 1
RNA 2: B1 RNA 2 with C27G, U28C, C29G, A53U, C54A
B21: target 2 MT 5'PFS CUC 3'PFS AAU (mixed)
RNA 1: B1 RNA 1
RNA 2: B1 RNA 2 with C54U
B22: target 2 MT 5'PFS GCG 3'PFS UUA (mixed)
RNA 1: B1 RNA 1
RNA 2: B1 RNA 2 with C27G, U28C, C29G, A52U, A53U, C54A
B23: target 2 MT 5'PFS ACC 3'PFS CAG (mixed)
RNA 1: B1 RNA 1
RNA 2: B1 RNA 2 with C27A, U28C, A52C, C54G
B24: target 2 MT 5'PFS CGC 3'PFS UCG (mixed)
RNA 1: B1 RNA 1
RNA 2: B1 RNA 2 with U28G, A52U, A53C, C54G
B25: target 2 MT 5'PFS GCG 3'PFS UUC (mixed)
RNA 1: B1 RNA 1
RNA 2: B1 RNA 2 with C27G, U28C, C29G, A52U, A53U
B26: target 2 MT 5'PFS ACC 3'PFS CAA (mixed)
RNA 1: B1 RNA 1
RNA 2: B1 RNA 2 with C27A, U28C, A52C, C54A
B27: target 2 MT 5'PFS CGC 3'PFS UCC (mixed)
RNA 1: B1 RNA 1
RNA 2: B1 RNA 2 with U28G, A52U, A53C
B28: target 2 MT 5'PFS CUC 3'PFS AAG (mixed)
RNA 1: B1 RNA 1
RNA 2: B1 RNA 2 with C54G
B29: target 2 MT 5'PFS GUU 3'PFS AUC (mixed)
RNA 1: B1 RNA 1
RNA 2: B1 RNA 2 with C27G, C29U, A53U
B30: target 2 MT 5'PFS AGC 3'PFS AUA (mixed)
RNA 1: B1 RNA 1
RNA 2: B1 RNA 2 with C27A, U28G, A53U, C54A
B31: target 2 MT 5'PFS GUU 3'PFS AUG (mixed)
RNA 1: B1 RNA 1
RNA 2: B1 RNA 2 with C27G, C29U, A53U, C54G
B32: target 2 MT 5'PFS ACG 3'PFS UUC (mixed)
RNA 1: B1 RNA 1
RNA 2: B1 RNA 2 with C27A, U28C, C29G, A52U, A53U
B33: target 2 MT 5'PFS CAC 3'PFS UAC (mixed)
RNA 1: B1 RNA 1
RNA 2: B1 RNA 2 with U28A, A52U
B34: target 2 MT 5'PFS CAC 3'PFS UAU (mixed)
RNA 1: B1 RNA 1
RNA 2: B1 RNA 2 with U28A, A52U, C54U
B35: target 1 G5U,C21A (mixed)
RNA 1: CACCCGUGCAAAAAUGCAGGGGUCUAAAACUGAGCGGAUAACCUCUCUAUGG
RNA 2: GGGAAUGGAUCCACAUCUACGAAUUCGUACAAUAGAGAGGUUAUCCUCUCACCGAGAUCGGAAGAGCACACGU
B36: target 1 insA 3' of 12,insU 3' of 4 (mixed)
RNA 1: B35 RNA 1
RNA 2: GGGAAUGGAUCCACAUCUACGAAUUCGUACCAUAGAGAGGAUUAUCCGCUUCACCGAGAUCGGAAGAGCACACGU
B37: target 1 insC 3' of 14,insC 3' of 3 (mixed)
RNA 1: B35 RNA 1
RNA 2: B36 RNA 2 with G39C, A41G, U51C
B38: target 1 insG 3' of 22,insC 3' of 12 (mixed)
RNA 1: B35 RNA 1
RNA 2: GGGAAUGGAUCCACAUCUACGAAUUCGUACGCAUAGAGAGGCUUAUCCGCUCACCGAGAUCGGAAGAGCACACGU

Target: T1, EsCas13d, nuclease-dead
Assay: crRNA (strand 1, pre-loaded); Mg2+; 40 mM Tris-HCl pH 7.5, 150 mM NaCl, 6 mM MgCl2, 1 mM DTT, 0.1% Tween-20, 0.2 mg/ml BSA; 25 C; 10 min per concentration, then washed
Conditions: tags: His6-TwinStrep-SUMO cleaved; N-terminal SNAP kept (SNAP-Surface 488); label: 3' end held by stalled T7 RNA polymerase

Binder	Kd [nM]
B1	2.5 ± 0.5
B2	13.8 ± 2.1
B3	10.9 ± 2.8
B4	15 ± 4
B5	6.8 ± 1.2
B6	10 ± 5
B7	2.3 ± 0.6
B8	27 ± 7
B9	5.5 ± 1.7
B10	14.3 ± 3.1
B11	15.5 ± 2.1
B12	2.3 ± 0.4
B13	11.6 ± 1.4
B14	8.1 ± 1
B15	10.1 ± 0.9
B16	18.9 ± 2.7
B17	13.3 ± 1.9
B18	7.3 ± 2.9
B19	12.6 ± 2.9

Binder	Kd [nM]
B20	10.6 ± 2.1
B21	2.32 ± 0.27
B22	21 ± 4
B23	5.1 ± 0.9
B24	7.9 ± 1.1
B25	21 ± 4
B26	~4.3
B27	~60
B28	2.32 ± 0.34
B29	15 ± 1.2
B30	7.1 ± 1.3
B31	19.6 ± 2.4
B32	16 ± 6
B33	1.66 ± 0.25
B34	1.87 ± 0.31
B35	~40
B36	26.3 ± 1.7
B37	45 ± 7
B38	42 ± 6
